# According to a protein production outcome set (Wang et al. 2014):
# Experiment: label from the status in PepcDB records
# 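Also: failed if final PepcDB status was selected cloned or expressed and not failed if soluble or beyond.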
row,Sequence,protein production
1,MNLASQSGEAGAGQLLFANFNQDNTEVKGASRAAGLGRRAVVWSLAVGSKSGYKFFSLSSVDKLEQIYECTDTEDVCIVERLFSSSLVAIVSLKAPRKLKVCHFKKGTEICNYSYSNTILAVKLNRQRLIVCLEESLYIHNIRDMKVLHTIRETPPNPAGLCALSINNDNCYLAYPGSATIGEVQVFDTINLRAANMIPAHDSPLAALAFDASGTKLATASEKGTVIRVFSIPEGQKLFEFRRGVKRCVSICSLAFSMDGMFLSASSNTETVHIFKLETVKEKPPEEPTTWTGYFGKVLMASTSYLPSQVTEMFNQGRAFATVRLPFCGHKNICSLATIQKIPRLLVGAADGYLYMYNLDPQEGGECALMKQHRLDGSLETTNEILDSASHDCPLVTQTYGAAAGKGTYVPSSPTRLAYTDDLGAVGGACLEDEASALRLDEDSEHPPMILRTD,failed
2,MTSKSRPNRDLAGRLALAAQLALVLVLAAAPELALAQSTMPGQQLLTFAKNFIIAPIALFAIVISGVAAFIRPDLIKTTGYIAIIAVILYFLLANADRLMQAIRAG,failed
3,MVQTRSQDDSKDKGKEVEGANPLEERMLRLESMMDAHSKEMMKHMAEMTMVMSRSTAHKLREEHSSGERSLPRSSTSTDDRVGYQDHRRDQGQDQDHRRDQQQNQDHRRDNRLDQVRYEPQQQHYGNLTRLGKIDLPRFDGTGIKEWLFKVEEFFGIDFTPADLKVKMVAIHFDSHAATWHHSFMQSGVGLEVLYDWPGYVRLLK,failed
4,MATNIPCEVVAFSDRKLKPLIYVYSFPGLTRRTKLKGNILLDYTLLSFSYCGTYLASYSSLPEFELALWNWESSIILCKKSQPGMDVNQMSFNPMNWRQLCLSSPSTVSVWTIERSNQEHCFRARSVKLPLEDGSFFNETDVVFPQSLPKDLIYGPVLPLSAIAGLVGKEAETFRPKDDLYPLLHPTMHCWTPTSDLYIGCEEGHLLMINGDTLQVTVLNKIEEESPLEDRRNFISPVTLVYQKEGVLASGIDGFVYSFIIKDRSYMIEDFLEIERPVEHMTFSPNYTVLLIQTDKGSVYIYTFGKEPTLNKVLDACDGKFQAIDFITPGTQYFMTLTYSGEICVWWLEDCACVSKIYLNTLATVLACCPSSLSAAVGTEDGSVYFISVYDKESPQVVHKAFLSESSVQHVV,failed
5,MLTLILAQVTTLDPARPQAEAVLAGGGRVLAVGTREELSALAPRAEVLDHRDLHLTPGLCDAHTHLVMYGASLSQLDVQGVRSVDEVRARLRERAAQTPAGEWIVGGGFLLSELGLSGYPTAADLDAVSPDHPVLLHSRDHHMIWVNSRALAAAGIHDQTPDPEGGHIVHPLGCLQENAQALVSERVPAPSESEWLAHARAGAQDLAARGYVSTHTMAFEDAAAPLALQTLAARGELPLRVWACLPHERLSAARSLGLSRVPGGLFQWGGVKFFADGALGSRTAWLHAPGFADGSGTGIALDSPDLILERGREALRLGLTPVTHAIGDRANTEVLDVYEQLRPEAEARGIRLRVEHAQHLRPEDLPRFRGLTASVQPVHLPADAAMIRELLPQREQTSYAFRSLKDAGAILAFGSDAPVAPPSVQGNFAAAVSRLGDDGLPLAPAEALTPDDVLWAYTRGPALAAGWDDEGWVKPGARAAFTLWNTIGGEARSLVL,failed
6,MKNVLILGAGGQIARHVINQLADKQTIKQTLFARQPAKIHKPYPTNSQIIMGDVLNHAALKQAMQGQDIVYANLTGEDLDIQANSVIAAMKACDVKRLIFVLSLGIYDEVPGKFVEWNNAVIGEPLKPFRRAADAIEASGLEYTILRPAWLTDEDIIDYELTSRNEPFKGTIVSRKSVAALITDIIDKPEKHIGENIGINQPGTDGDKPFFM,not failed
7,MNINENASQYIPHEAPMVFVDDLIEIFDQGALASLTIRPELLFCTAQGLPSWTSIELMAQTISAYSGRNGRQRGHTPRIGFLLGTRKLNLPVAFFELGSTLIIRIEQQYLHEGLGQFACEIEYQAHKISALLSVYEPTVDQDNKENT,failed
8,MSDILYSLLISAFLGLAHGLDADHIANVRIFKSVKKIFEFSLFHSAGFLIIAIPLSLLSLVTILEFPLLITSYSIGLLVSGLLLYGTVKGKELEIEPKRFGLLQGALVISPSKLIVLILALASESIFYAVLILLVFIVTSIISFMIFSLLNLIPKRFDKIVNIVISLGSIIYILYELITTLMSMH,failed
9,MNRTKKRALTVRIVKTAISVALAAVIVVAMVLVNPQLSTNKLISSLMGYNHQSVDNGNASAGDADTNYYTADYTKENIRKAEDKLYDQIASEGTVLLKNDDNELPAQKGTTFSFFSANSVDGSSLTQGYLGTPETVTLKSAFTAAGFKVNETLWNYYESGAGKDYGLATGSVNYGDGEDFRINEAPLAALRKESGLLDSVRGTTPVYVLNRVVGEGRDMPRSMYNHADKQEDKEKSYIELDSTETEIIKYLNDNYKDVILLVKSSAAMELGWVADYPNIKAVVYSQNVTNALAKVFSGEVNPSGKTVDTFAADALASPAAQNFGSYQYYDGNGNATKYNYVDYAEGIYVGYKYYETRYEDKVLGQGNAGDYDYATEVVYPFGYGLSYTDFKWSDFSVATDGDDFVATVTVKNTGDVAGKDVVELYAQTPYTDYDKRNAVEKAAVNLVGYGKTAELEPGASETVKITFGKDQLKSYDYKGAKTYILDAGQYRFTAASDANQAINNILADKGKGMADGMTAEGDKAMVSSWTPENTDVDTTTFATDDATGKAIANLFDAASDPEVTYLTRSDWTGTFPKHYGESSGEINTWGNEINCKDSDGNNASCTWKKTASDELIKQLDGNDSGSTVDKSTITDTPTFGKSNGLKVSDMRGLDYDDEQWDKLLDELTEDDYNQLVYFSGYGVDYIKSVEKPFQTDADAATGWFYGGTGKAFPSIMMLTQTWNASLAEDLGVMMGNEALLGGANGWYAPAMNIHRTPFSGRNGEYYSEDGFMSGSMASLEVKGAATKGVYSYIKHFALNDQENHRGDRPGNFSVATWSNEQAIRETYLKPFDMCMHLGDMDMKTVVKKSDGTYENKTVTTPIAKGVMTSFNRLGATWTGGNYALIQQLLRDEWGFNGLIITDNANTSKFMSPYQMLEAGADIKLLNVSEDPTGEQLDFNDAATYHYARQAMHHLLYTVANSNCMNGALPGAGFTFYNQMKVMQIAFNAICGVILALLAFFSVWRWLPGTIKRVAARKETRAAKKAARKAAKA,failed
10,MGIKHLNLTVADVVAAREFLEKYFGLTCSGTRGNAFAVMRDNDGFILTLMKGKEVQYPKTFHVGFPQESEEQVDKINQRLKEDGFLVEPPKHAHAYTFYVEAPGGFTIEVMC,not failed
11,MSYQNANYSAFYVSEPFSESNLGANSTHDFVYYNMLRMWKGEDNSFPFNDAHDKTYNVRDGSDWEKTLKPRLHTRLDNSKNIILFLSSITANSRALREEMNYGIGTKGLPVIVIYPDYDKKSDIVDSNGNFKKQIKDLWDKLPAFRDNMSSVATLHIPCTKSVIISALNNEDFMVNTMADAEKYYYKP,not failed
12,SAWALKLPLADEVIESGLVQDFDASLSGIGQELGAGAYSMSDVLALPIFKQEESSLPPDNENKILPFQYVLCAATSPAVKLHDETLTYLNQGQSYEIRMLDNRKLGELPEINGKLVKSIFRVVFHDRRLQYTEHQQLEGWRWNRPGDRILDIDIPMSVGIIDPRANPTQLNTVEFLWDPAKRTSVFIQVHCISTEFTMRKHGGEKGVPFRVQIDTFKENENGEYTEHLHSASCQIKVFKPKGADRKQKTDREKMEKRTPHEKEKYQPSYETTILTECSPWPEITYVNNSPSPGFNSSHSSFSLGEGNGSPNHQPEPPPPVTDNLLPTTTPQEAQQWLHRNRFSTFTRLFTNFSGADLLKLTRDDVIQICGPADGIRLFNALKGRMVRPRLTIYVCQESLQLREQQQQQQQQQQKHEDGDSNGTFFVYHAIYLEELTAVELTEKIAQLFSISPCQISQIYKQGPTGIHVLISDEMIQNFQEEACFILDTMKAETNDSYHIILK,failed
13,MPSIISDNPKNWSEEIKNYLCRSSPERYEKMATNNAIEPYISKAISWGYAEWKNRKTLLDDIETEMLRLATLPDLSDFNDNEIYSSKKNYLSKEILENYLIKASPENFNTVFRQPGWKSHVNFLIEKGNRELERQIINGNGVENSVDTVCAELAKLMNDFENSFFDEIYGNSTPRYLLPNLFEKAIAEYKLLATIKERTRFIEAFIEIVMFDWQFSGTLDSDLFKNAYSKEVLYYYGIGARLFVLGEFKEAQEYFKKIINIEPKPIDYLMLSKTYRALNEKVETFNTIKDGLTHFPNDFLLTLALSGTLYWMGETKLANETLEPVKKDFNTMYKSEIEGAKKLAVEISEAIKCDKIYRDQKNDIYDDKYTKKAWYQYWYHYNCFRPTQHPEAYMIDYIPRYLTSIAKDATITLKGVLDFGTLCAEPLYRFAKNNPEIQCVGIDRQDLVKELNDKAYSLNNLRFEAGDIFEYLEHFALLVPNHRMLFHCRTAVLCYPNFLLKLYKKCAELGIEYICLMESNSLSRDTLTFYNYGEMPNISIARRGSLINHDYFLLLEQSGYEIVKKDFHLAPHLLEDYAALIGSNTTLVAQLKLLTQSQ,failed
14,MEDTTFTKVFVGGLAWETHKVSLRNYFEQFGDIVEAVVITDKSSGRSKGYGFVTFCDPEAAQKACVDPAPVIDGRRANCNLAAFGVQRSKPSSPIHGTFRFLSFDTLLLKTLHQEYM,failed
15,MDNDRDTVEFWSSLFQSFADSEPKDNPYPVVRSPIMTMSTPMAIDEPVEPWKVLEYGGKEVRPMAIDEPAEPWKALEYGGKDVRPMAIDVPAEPWKVGGKEAQPANAAAEAGYKNVNTDQEKSTQKATEKVIM,not failed
16,MVFKRRDRRSPLQVLWELIWPRGGWTRAFHYVKHRVRRLPDRPERIARGIGAGVFASFTPFYGIHFVIAAILARLINGNILAGLSGTFFGNPLTYVPIGVVSLQTGHFLLGTEFHEGAKQGLMRKFARAAGDLKDNFLALFTDRDADWQALGLFFDEVFFPYMIGGIAPGIVAGVVCYYLSLPVISTYQKRRRAKIKAKFEAIKKKAQADLPNPGNPG,failed
17,MRKVLLTIRKIAMTQPTSRKADLVYQLNDRPPLPQTLFAALQHLLAMFVAVITPSLIICQSLGVPADQTNTIISMSLFASGLSSFIQIRTFGPIGSGLLSIQGTSFNFLGPIIGAGLALKAGGADIETMMAAIFGTILVASSAEILLSRVLQFAQRIITPLVSGIVVTLIGLTLVQVGLISMGGGYAAMADGSFGSLDKLALAGTVLAIIVLLNRAHNPYVRVASIVIAMLVGYVMAYLMGMVNTDNLAETQFIALPIPMQYGLGFDWSLFIPLVLIFLITALEAIGDITATSEVSGEPVKGPVYMKRIKGGVLADGLNSALAAVFNSFPNSTFSQNNGVILLTGVASRYVGYFIAGMLVLLGLFPGVASFVQLIPEPVLGGATIVMFGTIAAAGVRIISRVDLDRRAILIMALSFSMGLGIAQKPEILQFMPEFIKNLFSSGVAAGGITAIVLNLLLPEVRRDEDAASVAKTEAAQESN,failed
18,MEKKVGTDRVKRGMAQMQKGGVIMDVVNAEQAKIAEEAGAVAVMALERVPSDIRAAGGVARMADPRIVEEVMNAVSIPVMAKARIGHITEARVLEAMGVDYIDESEVLTPADDEFHLLKSDFTVPFVCGCRDIGEALRRIGEGAAMLRTKGEPGTGNIVEAVRHMRQVNGQIRQIASMTDDELMVAAKNFGAPYELVKEIKTLGKLPVVNFAAGGVATPADAALMMELGADGVFVGSGIFKSDNPAKFASAIVQATTYYTDYELIGKLSKELGSPMKGIEMSRLNPEDRMQDRSF,failed
19,MKVDVDEKTYIITMANDITKLYEENKRNLHYSITDPLTGAYNRKYLNDRFDIFIGDYIVLIDLDNFKMINDYEGHNVGDKILCDFVSLLNKELINSTSIIRLGGDEFIVIFSSDVDKNYVYSQLEALRENFLKVFSKYKYLSFSYGVDTVKRNLKLTIVELDKKMYKNKEKLEHHHHHH,failed
20,KRVFGFVSAKGGDGGSCIAANFAFALSQEPDIHVLAVDISLPFGDLDMYLSGNTHSQDLADISNASDRLDKSLLDTMVQHISPSLDLIPSPATFEKIVNIEPERVSDLIHIAASFYDYIIVDFGASIDHVGVWVLEHLDELCIVTTPSLQSLRRAGQLLKLCKEFEKPISRIEIILNRADTNSRITSDEIEKVIGRPISKRIPQDEDAMQESLLSGQSVLKVAPKSQLSKTIVDWALHLNGVSRPNKRSIWERLKIK,not failed
